± gives the uncertainty stated by the source.
Assay: amyloid nucleation score (Sup35N fusion, yeast selection) (log enrichment); library NNK1; higher = more nucleation; inactive = no reads after selection
In short: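 Three technical output replicates were used for random libraries. Psi-negative yeast expressing peptides of 20 random codons fused to Sup35N were induced with 100 μM copper sulfate for 24 hours and grown 7 days at 30°C on medium lacking adenine and uracil, and input and output plasmid inserts were Illumina-sequenced, excluding sequences with under 100 input reads. The nucleation score is the DiMSum log enrichment of output over input reads, centred on the mode score of non-aggregating sequences.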

Substance | amyloid nucleation score
SSDFY | -1.46 ± 1.3
SSDSLYTYDMDWAWAGTP | 0.281 ± 0.38
SSGRRWWTFQHHQIYLKVRS | 1.09 ± 0.59
SSGYYFVQWTCYLRK | -1.27 ± 2.7
SSIALYFGWLGSIR | 0.294 ± 0.85
SSIIILSNMLTYK | 3.61 ± 0.1
SSKCDLIDCSSD | inactive
SSKSAWYVRWSVSVQNKGRG | -0.363 ± 0.44
SSLKDSNLWSEIGTLWLTVM | -0.091 ± 0.25
SSLKVLIPYSCYHFV | 2.76 ± 0.1
SSLPRYNPR | inactive
SSLVATPLGLELIKGRSSSL | 0.57 ± 1.2
SSLVKTS | -0.44 ± 0.47
SSLVVAWF | 0.219 ± 0.21
SSMILSNGVFNCQMGFLACK | 0.461 ± 0.43
SSMWFYLRM | -0.595 ± 1.9
SSNWFPR | -0.07 ± 0.59
SSNYADNEGSAHQFGNRRES | -0.108 ± 0.43
SSPDFMFYILNRALA | -0.526 ± 1.4
SSPTLLSWVKW | 0.99 ± 0.58
SSRDGTIRRGWIWVDVRVKS | 0.142 ± 0.48
SSSGFNIFRLLV | -0.325 ± 0.25

Substance | amyloid nucleation score
SSSSVVLTRLQPTTGSYEMT | -0.667 ± 1.6
SSWQGLRNLHGSYEDQINVK | 4.17 ± 0.073
SSYMLWFAIFVRNLNPLVFW | -0.871 ± 0.37
STFNFTRIASADMSGTSTIW | 0.505 ± 0.33
STFSSVTGYKPCY | 0.551 ± 1.2
STLSVLLSWQN | 0.01 ± 0.41
STTLQERVYSAPATDLRDWA | 0.246 ± 0.37
STVFNGSGGEDVKKCPPHA | inactive
STVIHN | 1.23 ± 0.84
STVTTAYNDMSLIWQAARVL | 0.436 ± 0.57
SVAFWSVCRVLGTDADMDRI | -0.254 ± 0.58
SVCGSLSC | 1.16 ± 0.76
SVKYMVIDFQLKRMEVVINK | 0.354 ± 0.36
SVPAHFNRYMCNRGYCRFRR | inactive
SVRANIA | 1.34 ± 0.38
SVRGSYCYASLVCSDFL | -1.12 ± 0.84
SVSFEDDISMASGCCFLRGC | -0.146 ± 0.25
SVSNTYERE | 0.879 ± 0.68
SVTDRKV | 0.468 ± 0.41
SVTWFIYAWWFLGGSL | -0.921 ± 2.4
SVTWSYVTHLLLWLFGGAGL | 0.848 ± 0.76
SVVRNESNSLVH | 0.065 ± 0.28

Substance | amyloid nucleation score
SVYKVPVVYGINTRFYFSES | 1.18 ± 0.33
SVYVGRGHFLQKFRRLLRFE | inactive
SWASLIC | -0.838 ± 0.89
SWCVTCVLA | 7.204 ± 0.053
SWFIL | 0.428 ± 0.85
SWFNISAVLENMGRYS | 0.26 ± 0.44
SWFWHPYFCHRRIGSMGDGV | -0.017 ± 0.58
SWGLGSFLY | 0.06 ± 0.36
SWLVPR | -0.104 ± 0.25
SWNFTLLD | inactive
SWNKGLREED | 0.562 ± 0.72
SWNLGADIAMDDHVESV | 0.601 ± 0.39
SWRGICV | inactive
SWSRRDVYKEGLDGGMGEGA | -1.07 ± 1.3
SWSSKRNVWEHIVGESYEYF | inactive
SWTKVHLLVQAL | -1.14 ± 0.86
SWTVGSMLSLDIWHRVYLTT | -0.058 ± 0.44
SYDRNDFLGERSVGMH | 0.736 ± 0.36
SYFFGACCVGMCRLWNLFYS | 0.857 ± 0.52
SYGRLVGTWL | -0.111 ± 0.54
SYKLAVIRKM | -0.28 ± 0.24
SYLTGAEFFSTVRK | -0.745 ± 1.7

Substance | amyloid nucleation score
SYNRIILTFWSFLL | 1.13 ± 0.35
SYPFWYSHMIHCYRFAIFGL | -2.73 ± 2.4
SYQLSSVMDLAWMTHSTFGS | 1.8 ± 0.2
SYQSDDLWQETKPALSPLLE | 0.119 ± 0.46
SYRGVRIGSGGLMYRGANSF | inactive
SYSYDARNCNNTRDGNYNFL | -1.99 ± 1.1
SYYRLGACSRCHYFFMIEAR | inactive
TAESQAKQLSSNRKVGLTPS | 0.549 ± 0.27
TAMKILPAQRGCIYVWHNRR | inactive
TASCVIMELPVGTNDKYVWT | 0.296 ± 0.5
TASIDEQHHWTRQY | 0.32 ± 0.36
TATGGASETERTAVTMY | -0.609 ± 1.9
TAWHLSMNALGNSSLDFKGR | 1.51 ± 0.16
TCHLLPSICKSLWNHDNHGL | inactive
TCRDYCASVSEEQIWLMVYR | 0.297 ± 0.67
TCRFTHLLFWYFK | 0.246 ± 0.97
TCVGDCGCIGWSTIFFSDYS | 1.43 ± 0.72
TDADYTPHVQSVPYYAHLII | 3.88 ± 0.14
TDAQWGIFYDENIYPLDVFC | 0.075 ± 0.33
TDCSSLC | -0.373 ± 0.31
TDKSCRRNGTHAMVHFTPEL | -1.99 ± 1.7

— the supplement of paper PMC12042874
